“And” between values parts separate entries of the source, which are not always exact repeats. Equal entries are not always repeated.
Legend:
[1] = target: LHCII, the major light-harvesting pigment-protein complex of Photosystem II (Spinacia oleracea (endogenous in spinach leaves)); assay: native gel or EMSA; lipid-LHCII samples enriched with exogenously added zeaxanthin, separated by native electrophoresis; dimer bands cut out for spectroscopy
[2] = target: LHCII, the major light-harvesting pigment-protein complex of Photosystem II (Spinacia oleracea (endogenous in spinach leaves)); assay: native gel or EMSA; non-denaturing gel electrophoresis of LHCII-HL, isolated from spinach leaves pre-illuminated with 1200 µmol photons m^-2 s^-1, suspended in 0.1% DM; 4 °C, running buffer 96 mM glycine, 12.5 mM Tris, 0.05% LDS
[3] = target: LHCII, the major light-harvesting pigment-protein complex of Photosystem II (Spinacia oleracea (endogenous in spinach leaves)); assay: native gel or EMSA; non-denaturing gel electrophoresis of LHCII from dark-adapted leaves in 0.1% DM under constant illumination from sample loading, each slot at a different light intensity (11-1240 µmol photons m^-2 s^-1); 4 °C
[4] = target: LHCII, the major light-harvesting pigment-protein complex of Photosystem II (Spinacia oleracea (endogenous in spinach leaves)); assay: native gel or EMSA; non-denaturing gel electrophoresis of LHCII isolated from dark-adapted spinach leaves, suspended in 0.1% DM; 3% stacking and 8% separating gel, 4 °C, running buffer 96 mM glycine, 12.5 mM Tris, 0.05% LDS
[5] = target: LHCII, the major light-harvesting pigment-protein complex of Photosystem II (Spinacia oleracea (endogenous in spinach leaves)); assay: native gel or EMSA; identical experiment with thylakoid membranes from dark-adapted spinach leaves solubilised in 0.1% DM, electrophoresis under illumination of increasing intensity (Fig. S4)
[6] = target: LHCII, the major light-harvesting pigment-protein complex of Photosystem II (Spinacia oleracea (endogenous in spinach leaves)); assay: fluorescence correlation spectroscopy; mixture of LHCII trimers and monomers in 0.1% DM, illuminated with blue light of 100 µmol photons m^-2 s^-1 for 30 min, diluted to 3 nM; the form is assigned by its diffusion coefficient against monomer and trimer standards

- stoichiometry N [1]: 2
- stoichiometry N [2]: 3 and 2
- trimer/monomer ratio [2]: 0.71
- stoichiometry N [3]: 3 and 2
- stoichiometry N [4]: 3
- trimer/monomer ratio [4]: 2.82
- stoichiometry N [5]: 3 and 2
- stoichiometry N [6]: 2
Substance: LHCII, the major light-harvesting pigment-protein complex of Photosystem II (natural protein)

Reference: publication PMC5443882
